Experimental data reported in publication PMC12700808.

How the values were obtained:
[1] = target: Nup98-type FG domain comprising 52 perfect 12-mer GLFG repeat units (prf.GLFG52x12); assay: FG phase partitioning assay
[2] = target: Nup98-type FG domain comprising 52 perfect 12-mer GLFG repeat units (prf.GLFG52x12); assay: FG phase partitioning assay; remark: listed apart in the source
[3] = target: Nup98-type FG domain comprising 52 perfect 12-mer GLFG repeat units (prf.GLFG52x12); assay: FG phase partitioning assay; remark: listed apart in the source
[4] = target: FG repeat domain of 669 residues with non-charged spacers and 36 FSFG motifs; assay: partitioning into an FG phase (confocal laser scanning microscopy); as a1 but FG phases assembled from the SLFG or the FSFG repeat domain (stocks in 4 M guanidinium hydrochloride, diluted 50-fold)
[5] = signal in center of FG particles
[6] = fluorescence intensity at rim of FG particles
[7] = fluorescence intensity in center of FG particles

“conical CLPs (capsid-like particles) of wild-type CA (CA-P1A), filled with sinGFP4a Q9E” was tested. Which percent of parent ([1]; signal at rim of FG particles) did it give?
Its percent of parent is 89%.

What about the percent of parent [1, 5] of the same substance?
Its percent of parent is 13%.

And the response [2, 6]?
The response was 24000.

What about the response [2, 7] of the same substance?
Its response is 3500.

And the percent of parent ([2]; signal at rim of FG particles)?
The percent of parent was 120%.

What about the percent of parent [2, 5] of the same substance?
Its percent of parent is 14%.

What about the response [3, 6] of the same substance?
The response was 26000.

What about the response [3, 7] of the same substance?
The response was 3400.

With “20-nm pentamer-only spheres of CA Q9E (CA P1A+G60A+G61P background), EGFP-labelled (complex)” as the substance, how does the fold reduction of partitioning against WT [4] read?
The fold reduction of partitioning against WT was less than 100 fold.

Which fold reduction of partitioning against WT [4] does the source give for “20-nm pentamer-only spheres of CA H87Q (CA P1A+G60A+G61P background), EGFP-labelled (complex)” here?
Its fold reduction of partitioning against WT is less than 100 fold.

How did the fold reduction of partitioning against WT [4] turn out when “20-nm pentamer-only spheres of CA A92E (CA P1A+G60A+G61P background), EGFP-labelled (complex)” was run?
The fold reduction of partitioning against WT was less than 100 fold.

Which fold partitioning against wild type [4] does the source give for “CLPs of CA G89V, filled with sinGFP4a (complex)” here?
The fold partitioning against wild type was 4 fold.

What does the source list for “conical CLPs (capsid-like particles) of wild-type CA (CA-P1A), filled with sinGFP4a P123E”?
percent of parent ([2]; signal at rim of FG particles): 80%; response [3, 6]: 17000; response [3, 7]: 7400

For “20-nm pentamer-only spheres of CA G94D (CA P1A+G60A+G61P background), EGFP-labelled (complex)”, which fold reduction of partitioning against WT [4] is on record?
The fold reduction of partitioning against WT was less than 100 fold.
